This test deals with IL-10Rα receptor on MC/9 mouse mast cells (mouse) (UniProt Q61727). Nature of the test: cell-based or functional assay.
Sequence of UniProt Q61727 (Q61727 17-575): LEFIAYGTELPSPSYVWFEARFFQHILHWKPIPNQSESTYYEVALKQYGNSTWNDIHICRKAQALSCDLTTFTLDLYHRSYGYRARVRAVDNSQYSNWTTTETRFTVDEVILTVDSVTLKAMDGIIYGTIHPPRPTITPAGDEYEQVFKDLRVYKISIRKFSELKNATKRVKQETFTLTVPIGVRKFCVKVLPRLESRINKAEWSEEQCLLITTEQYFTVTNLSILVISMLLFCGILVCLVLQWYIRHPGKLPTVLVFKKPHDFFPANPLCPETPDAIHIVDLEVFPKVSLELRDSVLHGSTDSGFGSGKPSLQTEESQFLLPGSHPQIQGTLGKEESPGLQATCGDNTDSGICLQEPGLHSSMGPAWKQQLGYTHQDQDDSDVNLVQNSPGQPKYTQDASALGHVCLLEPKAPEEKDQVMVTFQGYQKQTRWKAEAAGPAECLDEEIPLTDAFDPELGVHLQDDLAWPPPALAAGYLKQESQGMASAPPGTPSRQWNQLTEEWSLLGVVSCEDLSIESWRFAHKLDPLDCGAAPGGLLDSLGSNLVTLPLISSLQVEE

In the case of “recombinant human IL-10 (Peprotech catalog number 200-10) (from UniProt P22301 19-178) (ligand)”, the half maximal effective concentration (EC50), proliferation of MC/9 cells in the presence of IL4 (Alamar Blue) stood at 91.7 pM.

The values above are taken from US20240034764A1.
